For this series, the target named is prostate-specific antigen (PSA), enzymatically active, from human seminal fluid (human, UniProt P07288 25-261). Put plainly: chemiluminescence sandwich assay on Si NW surface.

These results are taken from paper PMC6644640.

prostate-specific antigen (PSA), enzymatically active, from human seminal fluid, sequence (P07288 25-261): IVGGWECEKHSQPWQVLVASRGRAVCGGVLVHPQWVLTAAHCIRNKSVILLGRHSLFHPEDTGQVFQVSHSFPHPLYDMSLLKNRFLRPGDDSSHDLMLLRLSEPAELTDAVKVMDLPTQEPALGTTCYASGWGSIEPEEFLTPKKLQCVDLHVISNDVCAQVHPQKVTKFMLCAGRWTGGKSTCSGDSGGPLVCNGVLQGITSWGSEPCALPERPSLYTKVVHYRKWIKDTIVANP

On to AAAAATTAATTTCGAGCGGTAGTTTATCGAAA (ssDNA, 5'-H3N-(CH2)6) [nonspecific aptamer (32 nt control)], for which the binding result was “no binding”.
